Source: US20140289906A1, “Compositions Having Dicamba Decarboxylase Activity and Methods of Use” (priority 2013, published 2014)
Where a chain is given by its changes, count along the chain named.

Test: 14C assay: 14CO2 capture from [14C]-carboxyl-labeled dicamba with IPTG-induced recombinant E. coli cells
Conditions: for Dicamba Decarboxylase Activity: IPTG-induced recombinant E. coli cells, 14CO2 from [14C]-carboxyl-labeled dicamba; for decarboxylation activity of dicamba: among the 108 sequences tested, recombinant E. coli cell assay; for Enzymatic Detection level: dicamba decarboxylation activity

B1: 19 (protein, listed as Talaromyces marneffei)
chain: MATPIITLEEHYISSAIRDASETDHYAVFPSQIISKLNTLSTERLQDLDNGHVSLQVISHGPGAQPPYLCQAANDELASAISANPTRFAGFALLPIAEPQLAVQELERCITQHKFVGALIDNHTNGQFYDDQKFWPVFEKAQELDAPIYVHPSYPDEESGVAAHYRGNYDDRIAAALGAYGWGWHSDTALSILRLFAAGLFDTYPNIKIIIGHMGEMLPFQLERVIGIASRFGRSRGLREVWTQNIWVTTSGMFALAPLACLLQTMPIERVLYSVDYPFSANEKGFAFLEEIKKSGLIKEGEDWERFLYKNAQELLKVNV
In the case of B1, the “Dicamba Decarboxylase Activity” value is reported as “High”, the “decarboxylation activity of dicamba” value is reported as “showed decarboxylation activity of dicamba” and the “Enzymatic Detection level” value is reported as “High”.

B2: 4 (protein, listed as Lactobacillus buchneri)
chain: MAKVITLEEHFSSQKLGQKMAEVLPKRPIGNVSPKMQDYMQRSLPPEAELEDVTGSRIQWMDQHQISMQILSYGNQNPQNSDPKFAVELTKLANDELAKAVAKAPDRFRAFASLPVSHPTDAAAELKRGVEELGFKGAMLVRPTSQAHPFFDDPFYLPIFEAAANLNVPVYLHPSFPDSQIIDYYYSNGPWDDKVSGILGTAGYGWHTDVGIQTVRLLLSGVFEKYPNLKLISGHWGEFASFALERMDQVMYPETNLSEPISKIYRDHVYVTPSGILTEPQLKFVKDEVGIEHLLYSIDYPYIKPENSGSFIESSPLTDEEKELFAHGNAEKLLQL
In the case of B2, the “Dicamba Decarboxylase Activity” value is reported as “High”, the “decarboxylation activity of dicamba” value is reported as “showed decarboxylation activity of dicamba” and the “Enzymatic Detection level” value is reported as “High”.

B3: 88 (protein, listed as Starkeya novella)
chain: MARKIALEEHFTTPELAGKYVARPTQSDALFADIERRLADFDELRLEMMDRAEIDLMVLSVTTPGVQGVRDTGEAIRLARGANDFLAREVQKRPSRYAGFAHLAMQDAEAAATELERAVRELGFRGALINGQTNGHYLDEDQYAPFWERVQELDVPVYLHPGNMADSPAMFAHRPELGGPIWAWTAETAAHALRLVFGGTFTRFPGAKVILGHMGETLPFLLWRLDSRREFDLGEKLAPDALPSAIIKRNIAVTTSGVCDPAPLVAALQALSDDNVMFSVDYPYEDPQLASKFIETAPIGEETRAKVCHGNAERLLGL
With B3 the “Dicamba Decarboxylase Activity” value was “High”, the “decarboxylation activity of dicamba” value was “showed decarboxylation activity of dicamba” and the “Enzymatic Detection level” value was “High”.

B4: 89 (protein, listed as Erwinia billingiae)
chain: MATNRRDFLKNATAVMAGSTVFAGSSHFASAAAVEPAAVQPPRRIIALEEHFMLPEFVGYLHETQQNLRNGLVDKVVTPLSDFGKGRLEIMDKNGVDFAVLSLSGPGVQAEPDRVKAVRLARYANDKLATEMQKNPRRYGGFAHLAMQDPLAAANELERCVKQLHMQGGMINGETDGLYLDDRRYDVFWERVEALNVPIYIHPGNPPDYPHMFAGHPEMWGPVWSWAVETCSHALRLIFSGTFDRYPGARVILGHMGETLPIQLWRLDSRYQIANQTFAIKHPPSWYAKKNITITTSGVCNDAALRCALDSMGSENVMFSIDYPFESTEIAVNWLKTANITEQERNAVAWGNATSILRLGA
With B4 the “Dicamba Decarboxylase Activity” value was “High”, the “decarboxylation activity of dicamba” value was “showed decarboxylation activity of dicamba” and the “Enzymatic Detection level” value was “High”.

B5: 5 (protein, listed as Staphylococcus aureus)
chain: MAQNNMEANQMKSITFEEHYVIEDIQKETMNAISADPKGVPMKVMLEGLEKKTGFTNADELSHHDERIQFMNNQDVQIQVLSYGNGSPSNLVGQKAIELCQKANDQLANYIAQYPNRFVGFATLPINEPEAAAREFERCINDLGFKGALIMGRAQDGFLDQDKYDIIFKTAENLGVPIYLHPAPVNSDIYQSYYKGNYPEVTAATFACFGYGWHIDVGIHAIHLVLSGIFDRYPKLNMIIGHWGEFIPFFLERMDEALFAEHLNHPVSYYFKNNFYITPSGMLTKPQFDLVKKEAGIDRILYAADYPYIEPEKLGVFLDELGLTDEEKEKISYTNGAKLLGLSSNN
With B5 the “Dicamba Decarboxylase Activity” value was “High”, the “decarboxylation activity of dicamba” value was “showed decarboxylation activity of dicamba” and the “Enzymatic Detection level” value was “High”.

B6: 16 (protein, listed as Staphylococcus aureus)
chain: B5 chain with A131T
In the case of B6, the “Dicamba Decarboxylase Activity” value is reported as “High”, the “decarboxylation activity of dicamba” value is reported as “showed decarboxylation activity of dicamba” and the “Enzymatic Detection level” value is reported as “High”.

B7: 21 (protein, listed as Agrobacterium tumefaciens)
chain: MAQGKVALEEHFAIPETLQDSAGFVPGDYWKELQHRLLDIQDTRLKLMDAHGIETMILSLNAPAVQAIPDRKKAIEIARRANDVLAEECARRPDRFLAFAALPLQDPDAATQELQRCVNDLGFVGALVNGFSQEGDGQTPLYYDLPQYRPFWGEVEKLDVPFYLHPRNPLPQDSRIYDGHPWLLGPTWAFAQETAVHALRLMASGLFDAHPRLNIILGHMGEGLPYMMWRIDHRNAWVKLPPRYPAKRRFVDYFNENFHITTSGNFRTQTLIDAILEIGADRILFSTDWPFENIDHASDWFNATTIAEADRVKIGRTNARRLFKLDGR
In the case of B7, the “Dicamba Decarboxylase Activity” value is reported as “High”, the “decarboxylation activity of dicamba” value is reported as “showed decarboxylation activity of dicamba” and the “Enzymatic Detection level” value is reported as “High”.

B8: 92 (protein, listed as Chitinophaga pinensis)
chain: MARIVTLEEHVSFPEMTALLPEEILKNRKQSGAALQMQEKLADITGERLTSMKAAGISMQVLSVENTDVYLLPDSLAPAFAAKYNDLLADKISSHSDAFAAFAMLPMTVPEAAADELERAVKTHGFCGAMIKGLINGVFLDAPKFAPVFACAEKLGVPLYIHPGIPPKEVIDAYYSNVGDTKGPNEAIACYGWGWHSETAIHILRLLAAGIFDKYPQLNIIIGHMGEMLPMMWERSNRVFQPGNNGKNQRTLIETFRKQLYITTSGIFTQPPLQIAIDTIGIDNILFSIDYPFSSNQMGIDFLTKAALPAEQLAKMAHGNADRILKF
In the case of B8, the “Dicamba Decarboxylase Activity” value is reported as “Yes”, the “decarboxylation activity of dicamba” value is reported as “showed decarboxylation activity of dicamba” and the “Enzymatic Detection level” value is reported as “High”.

B9: 26 (protein, listed as Variovorax paradoxus)
chain: MATHMAPMKNKIALEEHFAIDLTIADSQVYARPEVWQGLKSNLLDFEQQRLEKMDEWGTEFSILSLNSPAVQGIPDAKRAIEVAQRANDVLAEQVKRHPTRFGGFAALPMQDPEASARELERCVNQLGFHGFLVNGFSQVGDENIVVYYDDARFNDFWTAAAALKKPFYMHPRDPLLAREPIYDGAHWLTGPTWAFAMETAIHALRLMSSGMFDRHPALQMILGHFGEGIPFNIWRVDHILRKGRRGMPCDKEIGEYLRSNVHITTSGNFRTPTLLSTMLEVGSDRIMYSVDYPFEKHEDAARWFDTCEISENDRQKIGRDNARKLFGLK
For B9, the “Dicamba Decarboxylase Activity” value was “High”, the “decarboxylation activity of dicamba” value was “showed decarboxylation activity of dicamba” and the “Enzymatic Detection level” value was “High”.

B10: 22 (protein, listed as Staphylococcus epidermidis)
chain: MAKSINFEEHYVVDDIQKETMKYMSSDPNGVPMQTMLKGLEQKSGFTNADDITKHDERIKFMDEHDVEMQVLSYGNGAPSNLEGERAIELCQQANDTLAKYVNEHPDRFVGFATLPINEPQAAVEEFKRCIKELGFKGALIMGHPKNGFLDQDQYDDLFATAEALNVPIYLHPSPVQSDVYQAYYKGNYSDVTAATFACFGYGWHVDVGIHAIHLVLSGVFDRHPNLNMIIGHWGEFVPFFLERMDDILFADHLEHPISYYFKNNFYITPSGMLTKPQFDLVKAEVGVDRILYSADYPYVEPDKLGTFLDELDLTEEEKEKISYKNGAKLLGLEK
For B10, the “Dicamba Decarboxylase Activity” value was “High”, the “decarboxylation activity of dicamba” value was “showed decarboxylation activity of dicamba” and the “Enzymatic Detection level” value was “High”.
